Assay [1] addresses D3H44 light chain V133G_N137K_S174R_S176R (Kabat), N-terminal HA or FLAG tag. Nature of the assay: LCCA co-expression, competing light chain m30, L1:L2 DNA 1:3 normalized to 1:1, SPR tag read-out.
Assay [2] addresses D3H44 light chain S121K_V133G_N137K_S174R_S176R (Kabat), N-terminal HA or FLAG tag. The assay is described as above.
Assay [3] has as its target D3H44 light chain Q124K_V133G_S176R_T178K (Kabat), N-terminal HA or FLAG tag. The assay is described as follows: LCCA co-expression, competing light chain m23, L1:L2 DNA 1:3 normalized to 1:1, SPR tag read-out.
For assay [4] the target is unchanged. The assay is described as follows: LCCA co-expression, competing light chain m25, L1:L2 DNA 1:3 normalized to 1:1, SPR tag read-out.
Assay [5] deals with D3H44 light chain Q124E_V133G_S176D_T178E_T180E (Kabat), N-terminal HA or FLAG tag. Nature of the assay: LCCA co-expression, competing light chain m24, L1:L2 DNA 1:3 normalized to 1:1, SPR tag read-out.
Assay [6] has as its target tissue factor (TF) antigen (UniProt P13726). Nature of the assay: SPR (ProteOn), Fab captured on anti-penta-His, TF analyte, 1:1 fit; * estimated from a Fab differing only in the L chain tag.
Assay [7] has the same target. The assay is described as follows: SPR KD against wild-type D3H44 Fab; * estimated value (estimated wild-type KD […]).
Assay [8] has the same target. Nature of the assay: SPR (ProteOn XPR36), Fab captured by His tag on anti-penta-His surface, TF injected as analyte, 1:1 fit; batch C (+).
Assay [9] has the same target. Nature of the assay: SPR (ProteOn XPR36), Fab captured by His tag on anti-penta-His surface, TF injected as analyte; against wild-type D3H44 Fab; batch C (+).
The target is the same in assay [10]. The assay is described as follows: SPR (ProteOn XPR36), Fab captured on anti-penta-His surface, TF as analyte; reference wild-type D3H44 Fab; batch C.
The target is the same in assay [11]. The assay is described as follows: SPR (ProteOn XPR36), Fab captured on anti-penta-His surface, TF as analyte, 1:1 fit; batch C (stored about 2 months at 4 C).
Assay [12] has as its target D3H44 light chain Q124K_V133G_S176R_T178K (Kabat), N-terminal HA or FLAG tag. Nature of the assay: LCCA co-expression, competing light chain m26, L1:L2 DNA 1:3 normalized to 1:1, SPR tag read-out.
The target of assay [13] is D3H44 light chain V133G_S176D_T178D_T180E (Kabat), N-terminal HA or FLAG tag. Nature of the assay: LCCA co-expression, competing light chain m24, L1:L2 DNA 1:3 normalized to 1:1, SPR tag read-out.
In assay [14] the target is D3H44 light chain Q124E_Q160E_T180E (Kabat) with N-terminal HA or FLAG tag. Nature of the assay: LCCA, SPR read-out of light-chain tags; light-chain DNA 1:3 normalized to 1:1; competing light chain m18.
For assay [15], the target named is D3H44 light chain Q124E_T180E (Kabat) with N-terminal HA or FLAG tag. The assay is described as above.
In assay [16] the target is D3H44 light chain Q124R_Q160K_T178R (Kabat) with N-terminal HA or FLAG tag. Nature of the assay: LCCA, SPR read-out of light-chain tags; light-chain DNA 1:3 normalized to 1:1; competing light chain m22.
The target of assay [17] is D3H44 light chain T178R (Kabat) with N-terminal HA or FLAG tag. The assay is described as follows: LCCA, SPR read-out of light-chain tags; light-chain DNA 1:3 normalized to 1:1; competing light chain m17.
The target of assay [18] is D3H44 light chain Q124K_T178R (Kabat) with N-terminal HA or FLAG tag. Described as above.
Assay [19] has as its target D3H44 light chain Q124R_Q160K_T178R (Kabat) with N-terminal HA or FLAG tag. Described as above.
In assay [20] the target is D3H44 light chain Q124E_S131T_T178F_T180E (Kabat) with N-terminal HA or FLAG tag. The assay is described as follows: LCCA, SPR read-out of light-chain tags; light-chain DNA 1:3 normalized to 1:1; competing light chain m20.
Assay [21] has as its target D3H44 light chain Q124E_Q160E_T180E (Kabat) with N-terminal HA or FLAG tag. Described as above.
Assay [22] shares this target. The assay is described as follows: LCCA, SPR read-out of light-chain tags; light-chain DNA 1:3 normalized to 1:1; competing light chain m16.
The target of assay [23] is D3H44 light chain T178R (Kabat) with N-terminal HA or FLAG tag. Nature of the assay: LCCA, SPR read-out of light-chain tags; light-chain DNA 1:3 normalized to 1:1; competing light chain m19.
The target of assay [24] is D3H44 light chain S131K (Kabat), N-terminal HA or FLAG tag. The assay is described as follows: LCCA co-expression, competing light chain m37, L1:L2 DNA 1:9 normalized to 1:1, SPR tag read-out.
Assay [25] has the same target. The assay is described as follows: LCCA co-expression, competing light chain m37, L1:L2 DNA 1:3 normalized to 1:1, SPR tag read-out.
The target in assay [26] is D3H44 light chain Q124E_T180E (Kabat), N-terminal HA or FLAG tag. Nature of the assay: LCCA co-expression, competing light chain m36, L1:L2 DNA 1:9 normalized to 1:1, SPR tag read-out.
Assay [27] shares this target. Nature of the assay: LCCA co-expression, competing light chain m36, L1:L2 DNA 1:3 normalized to 1:1, SPR tag read-out.
In assay [28] the target is tissue factor (TF) antigen (UniProt P13726). The assay is described as follows: SPR (ProteOn), Fab captured on anti-penta-His, TF analyte, 1:1 fit.
The target is the same in assay [29]. The assay is described as follows: SPR KD against wild-type D3H44 Fab (reference KD 0.157 nM).

Turning to “D3H44 Fab heavy chain L124R_H172R (Kabat), C-terminal ABD2-His6 tag”, the H2L2:H2L1 normalized median ratio in [1] is 8 of 100.

As for “D3H44 Fab heavy chain L124R_A125R_H172R (Kabat), C-terminal ABD2-His6 tag”, in assay [2], the H2L2:H2L1 normalized median ratio is 5 of 100.

For “D3H44 Fab heavy chain L124E_L143D_K145T (Kabat), C-terminal ABD2-His6 tag”, the H1L1:H1L2 normalized median ratio is 81 of 100 in [3], 79 of 100 in [4] and 21 of 100 in assay [5]. Besides, the H1L1:H1L2 normalized median scalar value ln(r1/f1) in [3] turned out to be 1.44; in assay [4], 1.31.

For “D3H44 Fab heterodimer, H: L143E_K145T_Q179D, L: Q124R_T178K (H1L1 Fab of LCCA set 9629)”, in [6], the Kd – broadly, the concentration at which binding is half-saturated – was 0.12 nM. In addition, the Change in KD with respect to wild type (-(log(KD design) - log(KD wt))) in assay [7] is 0.12.

In assay [8], “D3H44 H1L1 Fab heterodimer of LCCA Set # 9648 (H1 L143E_K145T_Q179E, L1 Q124K_T178R)” showed a Kd of 0.14 nM. In addition, in [9], the change in median KD compared to wild type, -(log(KD design)-log(KD wt)) worked out at 0.05 log.

“D3H44 Fab heterodimer H1 S186K / L1 S131E” had a Change in median values of KD of h1l1 Fab heterodimer compared to wild type (-(log(KD design)-log(KD wt))) in [10] of 0.05. This substance also yielded a Kd in assay [11] of 0.14 nM.

As for “D3H44 Fab heavy chain L124E_L143E_K145M (Kabat), C-terminal ABD2-His6 tag”, the figures for the H1L1:H1L2 normalized median ratio in [3], in [12] and in [13] were 88 of 100, 63 of 100 and 37 of 100, respectively. The H1L1:H1L2 normalized median scalar value ln(r1/f1) in [3] turned out to be 1.95; in assay [12], 0.55.

“D3H44 Fab heavy chain L124R_S186K (Kabat), C-terminal ABD2-His6 tag”: the results for the H2L2:H2L1 normalized median ratio in [3], in assay [12] and in assay [13] were 24 of 100, 7 of 100 and 93 of 100, respectively.

“D3H44 Fab heterodimer H1 S188L_V190Y / L1 V133S” yielded a Change in median values of KD of h1l1 Fab heterodimer compared to wild type (-(log(KD design)-log(KD wt))) in assay [10] of 0.2. In addition, the Kd in assay [11] worked out at 0.1 nM.

Regarding “D3H44 Fab heavy chain S186K (Kabat) with C-terminal ABD2-His6 tag”, the H2L2:H2L1 normalized median ratio was 91% in [14]; 96% in assay [15]; 4% in assay [16]; 9% in assay [17]; 17% in [18]; 19% in assay [19]. Moreover, the H2L2:H2L1 normalized median ratio was 96% in [20], 81% in [21], 83% in assay [22] and 4% in assay [23].

Turning to “D3H44 Fab heavy chain L124E_L143D_K145M (Kabat), C-terminal ABD2-His6 tag”, in assay [4], the H1L1:H1L2 normalized median ratio was 83 of 100 and the H1L1:H1L2 normalized median scalar value ln(r1/f1) came to 1.59. Besides, the H1L1:H1L2 normalized median ratio in [5] was 17 of 100.

As to “D3H44 Fab heterodimer, H: L143E_K145T_Q179D, L: Q124R_Q160K_T178R (H1L1 Fab of LCCA set 9623)”, in assay [6], the Kd was 0.06 nM. Moreover, the Change in KD with respect to wild type (-(log(KD design) - log(KD wt))) in [7] is 0.39.

For the substance “D3H44 H1L1 Fab heterodimer of LCCA Set # 9982 (H1 S186K, L1 S131E)”, the Kd in [8] worked out at 0.14 nM. The substance further displayed a change in median KD compared to wild type, -(log(KD design)-log(KD wt)) in [9] of 0.05 log.

As for “D3H44 H1L1 Fab heterodimer of LCCA Sets # 9888 and 9887 (H1 S186R, L1 Q124E_T178E)”, the Kd in [8] is 0.14 nM. Moreover, the change in median KD compared to wild type, -(log(KD design)-log(KD wt)) in [9] is 0.06 log.

Consider “D3H44 Fab heavy chain K145T_Q179E (Kabat), C-terminal ABD2-His6 tag”, for which the H1L1:H1L2 normalized median ratio in assay [24] was 75 of 100; in assay [25] it was 42 of 100; in assay [26], 25 of 100; in assay [27], 58 of 100. In addition, the H1L1:H1L2 normalized median scalar value ln(r1/f1) in [24] was 1.1; in assay [25], -0.34.

With “D3H44 Fab heterodimer, H: L143E_K145T_Q179E, L: Q124R_T178R (H1L1 Fab of LCCA sets 9663, 9666, 9667, 9671, 9675, 9679 and 9682)”, the Kd in assay [28] and in assay [6] was 0.27 nM each time. The Change in KD with respect to wild type (-(log(KD design) - log(KD wt))) in assay [29] and in [7] was -0.23 throughout.

On to “D3H44 Fab heavy chain L124E_H172T (Kabat), C-terminal ABD2-His6 tag”, for which, in assay [1], the H1L1:H1L2 normalized median ratio is 53 of 100 and the H1L1:H1L2 normalized median scalar value ln(r1/f1) was determined as 0.12.

On to “D3H44 Fab heavy chain L124E_L143E_K145T (Kabat), C-terminal ABD2-His6 tag”, for which the H1L1:H1L2 normalized median ratio was 89 of 100 in assay [3], 62 of 100 in assay [12] and 38 of 100 in assay [13]. Further, the H1L1:H1L2 normalized median scalar value ln(r1/f1) in assay [3] is 2.08; in assay [12], 0.43.

For “D3H44 Fab heavy chain L124E_A125S_H172T_K228D (Kabat), C-terminal ABD2-His6 tag”, in assay [2], the H1L1:H1L2 normalized median ratio was 27 of 100 and the H1L1:H1L2 normalized median scalar value ln(r1/f1) is -0.97.

Turning to “D3H44 Fab heavy chain S186K (Kabat), C-terminal ABD2-His6 tag”, the H2L2:H2L1 normalized median ratio in assay [24] is 7 of 100; in assay [25], 2 of 100; in assay [26], 93 of 100; in assay [27], 98 of 100.

Regarding “D3H44 Fab heavy chain L124R_D146N_Q179K (Kabat), C-terminal ABD2-His6 tag”, the H2L2:H2L1 normalized median ratio was 16 of 100 in [4] and 84 of 100 in assay [5].

The record behind these values is patent US11306156.
